Data published in patent US20080242608.

Biological target: T1, GST-FOXO3 peptide P2 (amino acids 154-259), O43524
T1 chain: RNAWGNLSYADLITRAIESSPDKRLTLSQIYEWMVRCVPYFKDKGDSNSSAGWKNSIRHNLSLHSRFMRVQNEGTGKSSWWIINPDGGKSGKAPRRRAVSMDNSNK

B1: FLAG-MST1 (protein)
chain: METVQLRNPPRRQLKKLDEDSLTKQPEEVFDVLEKLGEGSYGSVYKAIHKETGQIVAIKQVPVESDLQEIIKEISIMQQCDSPHVVKYYGSYFKNTDLWIVMEYCGAGSVSDIIRLRNKTLTEDEIATILQSTLKGLEYLHFMRKIHRDIKAGNILLNTEGHAKLADFGVAGQLTDTMAKRNTVIGTPFWMAPEVIQEIGYNCVADIWSLGITAIEMAEGKPPYADIHPMRAIFMIPTNPPPTFRKPELWSDNFTDFVKQCLVKSPEQRATATQLLQHPFVRSAKGVSILRDLINEAMDVKLKRQESQQREVDQDDEENSEEDEMDSGTMVRAVGDEMGTVRVASTMTDGANTMIEHDDTLPSQLGTMVINAEDEEEEGTMKRRDETMQPAKPSFLEYFEQKEKENQINSFGKSVPGPLKNSSDWKIPQDGDYEFLKSWTVEDLQKRLLALDPMMEQEIEEIRQKYQSKRQPILDAIEAKKRRQQNF
- in vitro kinase assay (phosphorylation of GST-FOXO3 peptides): MST1 robustly phosphorylated the P2 fragment
